The term Kd denotes a measure of binding affinity in units of concentration. What is called koff is a measure of how fast the partners let go of each other. High values mean fast dissociation, low ones slow dissociation.

3 molecules from publication doi:10.1101/2020.02.12.945170 (2020) can be followed below.

To fix the notation:
B1: ZAP70 tSH2-GFP (tandem SH2 domains of human ZAP70, amino acids 1-264, with C-terminal GFP) (domain or fragment)
chain: MPDPAAHLPFFYGSISRAEAEEHLKLAGMADGLFLLRQCLRSLGGYVLSLVHDVRFHHFPIERQLNGTYAIAGGKAHCGPAELCEFYSRDPDGLPCNLRKPCNRPSGLEPQPGVFDCLRDAMVRDYVRQTWKLEGEALEQAIISQAPQVEKLIATTAHERMPWYHSSLTREEAERKLYSGAQTDGKFLLRPRKEQGTYALSLIYGKTVYHYLISQDKAGKYCIPEGTKFDTLWQLVEYLKLKADGLIYCLKEACPNSSASNASG

In assay [1] the target is B1. Nature of the assay: SPR. A general note: Surface plasmon resonance follows binding to a sensor surface in real time, without labels.
Assay [2] deals with B1. Briefly: SPR.
Assay [3] concerns the target B1. Briefly: SPR; 37°C.
For assay [4], the target named is B1. Briefly: SPR; 37°C.
For assay [5], the target named is B1. Nature of the assay: single-particle tracking TIRF.
Assay [6] concerns the target T1, Avi-CD3ζ ITAM3 (full intracellular tail of CD3ζ, amino acids 52-164, all tyrosines mutated to Ala except the … (UniProt P20963-1 52-164, biotin on the Avitag; tyrosines of ITAM3 phosphorylated in vitro by Lck). Nature of the assay: SPR; phosphorylated on ITAM3; dissociation phase fit.
Assay [7] has as its target T1, Avi-CD3ζ ITAM3 (full intracellular tail …). Briefly: SPR; phosphorylated on ITAM3; from kobs plot intercept.

Square brackets hold non-standard residues; d marks the D form. Ends that are not written are not given here. * marks the point of attachment. Biotin = O=C1N[C@H]2[C@H](CS[C@H]2CCCCC(=O)*)N1; pY = N[C@@H](Cc1ccc(OP(=O)(O)O)cc1)C(=O)O

T1 sequence (P20963 52-164, change not shown): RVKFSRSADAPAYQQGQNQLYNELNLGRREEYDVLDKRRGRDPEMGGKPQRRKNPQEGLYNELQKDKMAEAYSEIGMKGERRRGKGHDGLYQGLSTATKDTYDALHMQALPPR

As to Biotin-GKGHDLL[pY]QGLSTATKDTYDALHMQ [ITAM3 N (N-monophosphorylated CD3ζ ITAM3 peptide)], the Kd in assay [1] and in assay [3] was 20.7 µM each time. For the same molecule, the koff in assay [2] is 5.5 s⁻¹; in assay [4], 5.5 s⁻¹; in assay [5], 4.8 s⁻¹.
Take Biotin-GKGHDLLYQGLSTATKDT[pY]DALHMQ [ITAM3 C (C-monophosphorylated CD3ζ ITAM3 peptide)]: the Kd in assay [1] and in assay [3] was 7.52 µM throughout.
Consider B1, for which the koff was determined as 0.25 s⁻¹ in assay [6] and 0.21 s⁻¹ in assay [7].
